For test [1], the target named is HLA-A*2401 (purified HLA class I molecule) (human). The test can be described thus: competition with 125I-labelled standard peptide for purified HLA, gel filtration. As to conditions: scale: ratio. In general terms: SEC sorts molecules by how far they enter the pores of the column.
Test [2] has the same target. The test can be described thus: competition with 125I-labelled probe peptide for purified HLA, gel filtration. Conditions: scale: ratio.
Test [3] deals with HLA-DR3 (DRB1*0301), purified HLA class II molecule (human). The experiment in a line: competition with 125I-labelled probe peptide, purified HLA-DR.
Test [4] has as its target HLA-A*2401 (human). The test can be described thus: inhibition of 125I probe peptide binding to purified HLA; IC50 standard/IC50 test.
The target of test [5] is HLA-A*2401 (human). The experiment in a line: competition with 125I-labelled standard peptide for purified HLA, gel filtration.

As for “HER2/neu peptide, position 172, 10 amino acids”, the relative binding ratio in test [1] amounted to 0.0022. As for “HER2/neu peptide, position 952, 10 amino acids”, the relative binding ratio in test [2] was 0.0019. For “HER2/neu DR supermotif exemplary 15-mer … (position 912) (peptide)”, the relative binding ratio (ratio (IC50 standard / IC50 test)) in test [3] is 0.001. As for HER2/neu 780-790 (peptide), the relative binding ratio in the test with HLA-A*2401 (human) [4] was found to be 0.032. Still for that read-out and setting: next, “HER2/neu 705-714 (from UniProt P04626 705-714) (peptide)”: 0.0002. Regarding “HER2/neu DR supermotif exemplary 15-mer … (position 8) (peptide)”, the relative binding ratio (ratio (IC50 standard / IC50 test)) in test [3] was determined as 0.001. With “HER2/neu DR supermotif exemplary 15-mer … (position 666) (peptide)”, the relative binding ratio (ratio (IC50 standard / IC50 test)) in test [3] came to 0.0021.

“HER2/neu 172-181 (from UniProt P04626 172-181) (peptide)”: the relative binding ratio in the test with HLA-A*2401 (human) [4] came to 0.0022. As for “HER2/neu DR supermotif exemplary 15-mer … (position 783) (peptide)”, the relative binding ratio (ratio (IC50 standard / IC50 test)) in test [3] was found to be 0.0062. Take “HER2/neu peptide, position 780, 11 amino acids”: the relative binding ratio (IC50 of standard peptide / IC50 of test peptide) (ratio to standard peptide) with HLA-A*2401 (human) [5] was 0.032.

As to “HER2/neu 705-715 (from UniProt P04626 705-715) (peptide)”, in the test with HLA-A*2401 (human) [4], the relative binding ratio is -0.0003.

Source of the values: patent publication US20040018971A1.
